Results taken from US12679878B2, “CRF2 receptor agonists and their use in therapy” (SANOFI, priority 2020, dated 2026).
Starred links: 1 amine or outer side, 2 acyl side, 3 side chain; linkers in the order of their positions; H or OH if unused. Non-standard residues stand in square brackets, D forms with d. Groups on a side chain read outwards from the residue. No end group written: not given here. *: point of attachment. C20 diacid = O=C(O)CCCCCCCCCCCCCCCCCCC(=O)*; C18 diacid = O=C(O)CCCCCCCCCCCCCCCCC(=O)*; γGlu = O=C(O)[C@H](CCC(=O)[*:2])N[*:1]; AEEA = NCCOCCOCC(=O)O; Aib = CC(C)(N)C(=O)O

T1: anti-target CRF1R receptor (UniProt P34998 24-415, limits assumed)
T1 sequence (looked up): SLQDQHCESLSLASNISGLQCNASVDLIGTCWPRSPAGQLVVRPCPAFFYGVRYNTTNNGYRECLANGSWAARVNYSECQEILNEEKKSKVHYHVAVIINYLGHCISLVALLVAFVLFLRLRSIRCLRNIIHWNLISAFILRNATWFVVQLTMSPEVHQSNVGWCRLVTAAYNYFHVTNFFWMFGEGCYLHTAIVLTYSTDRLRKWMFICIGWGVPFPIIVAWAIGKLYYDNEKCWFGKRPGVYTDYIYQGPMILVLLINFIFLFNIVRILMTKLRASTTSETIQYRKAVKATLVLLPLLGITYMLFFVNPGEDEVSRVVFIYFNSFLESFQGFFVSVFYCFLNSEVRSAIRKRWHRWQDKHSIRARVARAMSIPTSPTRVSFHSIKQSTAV

B1: peptide of SEQ ID NO: 63 (peptide)
peptide: FTLSLDVPIKLK([AEEA-AEEA-γGlu-C20 diacid])QILLEQQKQKKERQQAETNVQLLERV-NH2
B2: peptide of SEQ ID NO: 60 (peptide)
peptide: FTLSLDVPTKIK([AEEA-AEEA-γGlu-C20 diacid])QILLKQQKQKKERQQAEKNKQLLERV-NH2
B3: peptide of SEQ ID NO: 58 (peptide)
peptide: FTLSLDVPTKIK([AEEA-AEEA-γGlu-C20 diacid])QILFKQQKQKKERQQAEKNKQLLEQI-NH2
B4: peptide of SEQ ID NO: 46 (peptide)
peptide: IVLSLDVPIKLK([AEEA-AEEA-γGlu-C18 diacid])QILLEQAKQK[Aib]LRAQAETNVRILERV-NH2
modifications: N-terminus assumed
SMILES: CC[C@H](C)[C@H](N)C(=O)N[C@H](C(=O)N[C@@H](CC(C)C)C(=O)N[C@@H](CO)C(=O)N[C@@H](CC(C)C)C(=O)N[C@@H](CC(=O)O)C(=O)N[C@H](C(=O)N1CCC[C@H]1C(=O)N[C@H](C(=O)N[C@@H](CCCCN)C(=O)N[C@@H](CC(C)C)C(=O)N[C@@H](CCCCNC(=O)COCCOCCNC(=O)COCCOCCNC(=O)CC[C@H](NC(=O)CCCCCCCCCCCCCCCCC(=O)O)C(=O)O)C(=O)N[C@@H](CCC(N)=O)C(=O)N[C@H](C(=O)N[C@@H](CC(C)C)C(=O)N[C@@H](CC(C)C)C(=O)N[C@@H](CCC(=O)O)C(=O)N[C@@H](CCC(N)=O)C(=O)N[C@@H](C)C(=O)N[C@@H](CCCCN)C(=O)N[C@@H](CCC(N)=O)C(=O)N[C@@H](CCCCN)C(=O)NC(C)(C)C(=O)N[C@@H](CC(C)C)C(=O)N[C@@H](CCCNC(=N)N)C(=O)N[C@@H](C)C(=O)N[C@@H](CCC(N)=O)C(=O)N[C@@H](C)C(=O)N[C@@H](CCC(=O)O)C(=O)N[C@H](C(=O)N[C@@H](CC(N)=O)C(=O)N[C@H](C(=O)N[C@@H](CCCNC(=N)N)C(=O)N[C@H](C(=O)N[C@@H](CC(C)C)C(=O)N[C@@H](CCC(=O)O)C(=O)N[C@@H](CCCNC(=N)N)C(=O)N[C@H](C(N)=O)C(C)C)[C@@H](C)CC)C(C)C)[C@@H](C)O)[C@@H](C)CC)[C@@H](C)CC)C(C)C)C(C)C
B5: peptide of SEQ ID NO: 53 (peptide)
peptide: FTLSLDVPTKIK([AEEA-AEEA-γGlu-C18 diacid])QILLKQQKQKKERQQAETNKQLLERV-NH2
modifications: N-terminus assumed
SMILES: CC[C@H](C)[C@H](NC(=O)[C@H](CCC(N)=O)NC(=O)[C@H](CCCCNC(=O)COCCOCCNC(=O)COCCOCCNC(=O)CC[C@H](NC(=O)CCCCCCCCCCCCCCCCC(=O)O)C(=O)O)NC(=O)[C@@H](NC(=O)[C@H](CCCCN)NC(=O)[C@@H](NC(=O)[C@@H]1CCCN1C(=O)[C@@H](NC(=O)[C@H](CC(=O)O)NC(=O)[C@H](CC(C)C)NC(=O)[C@H](CO)NC(=O)[C@H](CC(C)C)NC(=O)[C@@H](NC(=O)[C@@H](N)Cc1ccccc1)[C@@H](C)O)C(C)C)[C@@H](C)O)[C@@H](C)CC)C(=O)N[C@@H](CC(C)C)C(=O)N[C@@H](CC(C)C)C(=O)N[C@@H](CCCCN)C(=O)N[C@@H](CCC(N)=O)C(=O)N[C@@H](CCC(N)=O)C(=O)N[C@@H](CCCCN)C(=O)N[C@@H](CCC(N)=O)C(=O)N[C@@H](CCCCN)C(=O)N[C@@H](CCCCN)C(=O)N[C@@H](CCC(=O)O)C(=O)N[C@@H](CCCNC(=N)N)C(=O)N[C@@H](CCC(N)=O)C(=O)N[C@@H](CCC(N)=O)C(=O)N[C@@H](C)C(=O)N[C@@H](CCC(=O)O)C(=O)N[C@H](C(=O)N[C@@H](CC(N)=O)C(=O)N[C@@H](CCCCN)C(=O)N[C@@H](CCC(N)=O)C(=O)N[C@@H](CC(C)C)C(=O)N[C@@H](CC(C)C)C(=O)N[C@@H](CCC(=O)O)C(=O)N[C@@H](CCCNC(=N)N)C(=O)N[C@H](C(N)=O)C(C)C)[C@@H](C)O
B6: peptide of SEQ ID NO: 52 (peptide)
peptide: FTLSLDVPTKIK([AEEA-AEEA-γGlu-C18 diacid])QILLKQQKQKKERQQAEKNKQLLERV-NH2
modifications: N-terminus assumed
SMILES: CC[C@H](C)[C@H](NC(=O)[C@H](CCC(N)=O)NC(=O)[C@H](CCCCNC(=O)COCCOCCNC(=O)COCCOCCNC(=O)CC[C@H](NC(=O)CCCCCCCCCCCCCCCCC(=O)O)C(=O)O)NC(=O)[C@@H](NC(=O)[C@H](CCCCN)NC(=O)[C@@H](NC(=O)[C@@H]1CCCN1C(=O)[C@@H](NC(=O)[C@H](CC(=O)O)NC(=O)[C@H](CC(C)C)NC(=O)[C@H](CO)NC(=O)[C@H](CC(C)C)NC(=O)[C@@H](NC(=O)[C@@H](N)Cc1ccccc1)[C@@H](C)O)C(C)C)[C@@H](C)O)[C@@H](C)CC)C(=O)N[C@@H](CC(C)C)C(=O)N[C@@H](CC(C)C)C(=O)N[C@@H](CCCCN)C(=O)N[C@@H](CCC(N)=O)C(=O)N[C@@H](CCC(N)=O)C(=O)N[C@@H](CCCCN)C(=O)N[C@@H](CCC(N)=O)C(=O)N[C@@H](CCCCN)C(=O)N[C@@H](CCCCN)C(=O)N[C@@H](CCC(=O)O)C(=O)N[C@@H](CCCNC(=N)N)C(=O)N[C@@H](CCC(N)=O)C(=O)N[C@@H](CCC(N)=O)C(=O)N[C@@H](C)C(=O)N[C@@H](CCC(=O)O)C(=O)N[C@@H](CCCCN)C(=O)N[C@@H](CC(N)=O)C(=O)N[C@@H](CCCCN)C(=O)N[C@@H](CCC(N)=O)C(=O)N[C@@H](CC(C)C)C(=O)N[C@@H](CC(C)C)C(=O)N[C@@H](CCC(=O)O)C(=O)N[C@@H](CCCNC(=N)N)C(=O)N[C@H](C(N)=O)C(C)C
B7: peptide of SEQ ID NO: 61 (peptide)
peptide: FTLSLDVPTKIK([AEEA-AEEA-γGlu-C20 diacid])QILLKQQKQKKERQQAETNKQLLERV-NH2
B8: peptide of SEQ ID NO: 62 (peptide)
peptide: FTLSLDVPIKLK([AEEA-AEEA-γGlu-C20 diacid])QILLKQQKQKKERQQAETNVQLLERV-NH2
B9: peptide of SEQ ID NO: 54 (peptide)
peptide: FTLSLDVPIKLK([AEEA-AEEA-γGlu-C18 diacid])QILLKQQKQKKERQQAETNVQLLERV-NH2
modifications: N-terminus assumed
SMILES: CC[C@H](C)[C@H](NC(=O)[C@H](CCC(N)=O)NC(=O)[C@H](CCCCNC(=O)COCCOCCNC(=O)COCCOCCNC(=O)CC[C@H](NC(=O)CCCCCCCCCCCCCCCCC(=O)O)C(=O)O)NC(=O)[C@H](CC(C)C)NC(=O)[C@H](CCCCN)NC(=O)[C@@H](NC(=O)[C@@H]1CCCN1C(=O)[C@@H](NC(=O)[C@H](CC(=O)O)NC(=O)[C@H](CC(C)C)NC(=O)[C@H](CO)NC(=O)[C@H](CC(C)C)NC(=O)[C@@H](NC(=O)[C@@H](N)Cc1ccccc1)[C@@H](C)O)C(C)C)[C@@H](C)CC)C(=O)N[C@@H](CC(C)C)C(=O)N[C@@H](CC(C)C)C(=O)N[C@@H](CCCCN)C(=O)N[C@@H](CCC(N)=O)C(=O)N[C@@H](CCC(N)=O)C(=O)N[C@@H](CCCCN)C(=O)N[C@@H](CCC(N)=O)C(=O)N[C@@H](CCCCN)C(=O)N[C@@H](CCCCN)C(=O)N[C@@H](CCC(=O)O)C(=O)N[C@@H](CCCNC(=N)N)C(=O)N[C@@H](CCC(N)=O)C(=O)N[C@@H](CCC(N)=O)C(=O)N[C@@H](C)C(=O)N[C@@H](CCC(=O)O)C(=O)N[C@H](C(=O)N[C@@H](CC(N)=O)C(=O)N[C@H](C(=O)N[C@@H](CCC(N)=O)C(=O)N[C@@H](CC(C)C)C(=O)N[C@@H](CC(C)C)C(=O)N[C@@H](CCC(=O)O)C(=O)N[C@@H](CCCNC(=N)N)C(=O)N[C@H](C(N)=O)C(C)C)C(C)C)[C@@H](C)O

target: T1, anti-target CRF1R receptor; test: cell-based or functional assay

| EC50[nM] 0% HSA (cAMP, CRF1R-overexpression CHO cells) | Emax (%) (cAMP, CRF1R-overexpression CHO cells) | Binder |
| --- | --- | --- |
| > 1000 nM | 4.68% | B1 |
| > 1000 nM | 4.84% | B2 |
| > 1000 nM | 9.12% | B3 |
| > 1000 nM | 5.88% | B4 |
| > 1000 nM | 4.14% | B5 |
| > 1000 nM | 5.3% | B6 |
| > 1000 nM | 3.31% | B7 |
| > 1000 nM | 2.28% | B8 |
| > 1000 nM | 2.72% | B9 |

target: rat CRF2R α receptor (rat, UniProt P47866 20-411); test: cell-based or functional assay
Sequence (P47866 20-411): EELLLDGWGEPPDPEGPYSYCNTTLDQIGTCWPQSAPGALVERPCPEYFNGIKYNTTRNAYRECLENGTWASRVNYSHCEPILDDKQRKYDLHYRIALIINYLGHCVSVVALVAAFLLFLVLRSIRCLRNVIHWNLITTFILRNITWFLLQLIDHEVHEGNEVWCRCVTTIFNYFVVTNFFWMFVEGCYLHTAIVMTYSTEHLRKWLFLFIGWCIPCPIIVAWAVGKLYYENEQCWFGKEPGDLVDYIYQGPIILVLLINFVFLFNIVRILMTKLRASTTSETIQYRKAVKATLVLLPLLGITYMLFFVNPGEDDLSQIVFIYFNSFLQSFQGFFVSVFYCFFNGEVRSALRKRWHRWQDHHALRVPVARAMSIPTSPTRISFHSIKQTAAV

| EC50 [nM], 0% HSA (cAMP, A7R5 cells) | Binder |
| --- | --- |
| 4.73 nM | B1 |
| 1.35 nM | B2 |
| 0.72 nM | B3 |
| 8.97 nM | B4 |
| 1.32 nM | B5 |
| 0.76 nM | B6 |
| 0.94 nM | B7 |
| 2.9 nM | B8 |
| 1.51 nM | B9 |
